# From the Immune Epitope Database (IEDB)
# Columns and labels:
# [1] = target: HLA-A*01:01; assay: IEDB peptide-MHC binding, purified MHC/direct/fluorescence; filed as Kd, often an IC50 or EC50 that approximates it; ≥ and ≤ were set here for values at or beyond the usual limits of such assays
# [2] = target: HLA-A*03:01; assay: as above
# [3] = target: HLA-A*11:01; assay: as above
# [4] = target: HLA-A*26:01; assay: as above; conditions: source organism: Escherichia coli O157:H7
# [5] = target: HLA-A*31:01; assay: as above
# [6] = target: HLA-A*69:01; assay: as above
# [7] = target: HLA-B*08:01; assay: as above
# [8] = target: HLA-B*15:01; assay: as above
# [9] = target: HLA-B*15:17; assay: as above; conditions: source organism: Escherichia coli O157:H7
# [10] = target: HLA-B*27:05; assay: as above
# [11] = target: HLA-B*40:01; assay: as above
# [12] = target: HLA-B*44:02; assay: as above; conditions: source organism: Escherichia coli O157:H7
# [13] = target: HLA-B*57:01; assay: as above
# [14] = target: HLA-B*58:01; assay: as above
# [15] = target: HLA-C*03:03; assay: as above
# [16] = target: HLA-A*02:01; assay: IEDB peptide-MHC binding, purified MHC/competitive/fluorescence; ≥ and ≤ were set here for values at or beyond the usual limits of such assays
# [17] = target: HLA-A*24:02; assay: as above
# [18] = target: HLA-B*15:01; assay: as above
# [19] = target: HLA-A*02:01; assay: IEDB peptide-MHC binding, purified MHC/direct/fluorescence; filed as Kd, often an IC50 or EC50 that approximates it; ≥ and ≤ were set here for values at or beyond the usual limits of such assays; conditions: source organism: Reston ebolavirus
# [20] = target: HLA-A*26:01; assay: IEDB peptide-MHC binding, purified MHC/competitive/fluorescence; filed as Kd, often an IC50 or EC50 that approximates it; ≥ and ≤ were set here for values at or beyond the usual limits of such assays
# [21] = target: HLA-B*18:01; assay: as above
# [22] = target: HLA-B*27:03; assay: as above
# [23] = target: HLA-B*46:01; assay: as above
# [24] = target: HLA-B*57:01; assay: as above
# [25] = target: HLA-B*07:02; assay: IEDB peptide-MHC binding, purified MHC/competitive/fluorescence; ≥ and ≤ were set here for values at or beyond the usual limits of such assays
# [26] = target: HLA-C*05:01; assay: IEDB peptide-MHC binding, purified MHC/direct/fluorescence; filed as Kd, often an IC50 or EC50 that approximates it; ≥ and ≤ were set here for values at or beyond the usual limits of such assays
# [27] = target: HLA-B*57:01; assay: IEDB peptide-MHC binding, purified MHC/competitive/radioactivity; filed as Kd, often an IC50 or EC50 that approximates it; ≥ and ≤ were set here for values at or beyond the usual limits of such assays
# [28] = target: HLA-A*29:02; assay: IEDB peptide-MHC binding, purified MHC/direct/fluorescence; filed as Kd, often an IC50 or EC50 that approximates it; ≥ and ≤ were set here for values at or beyond the usual limits of such assays; conditions: source organism: Mycobacterium tuberculosis variant bovis
# [29] = target: HLA-B*18:01; assay: as above; conditions: source organism: Mycobacterium tuberculosis variant bovis
# [30] = target: HLA-B*46:01; assay: as above; conditions: source organism: Mycobacterium tuberculosis variant bovis
# [31] = target: HLA-B*48:01; assay: as above; conditions: source organism: Mycobacterium tuberculosis variant bovis
# [32] = target: HLA-C*12:03; assay: as above; conditions: source organism: Homo sapiens
# [33] = target: HLA-A*02:01; assay: IEDB peptide-MHC binding, purified MHC/competitive/fluorescence; filed as Kd, often an IC50 or EC50 that approximates it; ≥ and ≤ were set here for values at or beyond the usual limits of such assays
# [34] = target: HLA-B*15:01; assay: as above
# [35] = target: HLA-A*02:03; assay: as above; conditions: source organism: Salmonella enterica subsp. enterica serovar Typhi
# [36] = target: HLA-A*02:11; assay: as above; conditions: source organism: Salmonella enterica subsp. enterica serovar Typhi
# [37] = target: HLA-A*02:12; assay: as above; conditions: source organism: Salmonella enterica subsp. enterica serovar Typhi
# [38] = target: HLA-A*02:19; assay: as above; conditions: source organism: Salmonella enterica subsp. enterica serovar Typhi
# [39] = target: HLA-A*03:01; assay: as above; conditions: source organism: Salmonella enterica subsp. enterica serovar Typhi
# [40] = target: HLA-A*29:02; assay: as above; conditions: source organism: Salmonella enterica subsp. enterica serovar Typhi
# [41] = target: HLA-B*39:01; assay: as above; conditions: source organism: Salmonella enterica subsp. enterica serovar Typhi
# [42] = target: HLA-B*51:01; assay: as above; conditions: source organism: Salmonella enterica subsp. enterica serovar Typhi
# [43] = target: HLA-A*03:01; assay: IEDB peptide-MHC binding, purified MHC/competitive/fluorescence; ≥ and ≤ were set here for values at or beyond the usual limits of such assays; conditions: source organism: Variola virus
# [44] = target: HLA-A*11:01; assay: as above; conditions: source organism: Variola virus
# [45] = source organism: Escherichia coli O157:H7
# [46] = source organism: Shigella flexneri
# [47] = source organism: Zaire ebolavirus
# [48] = source organism: Sudan ebolavirus
# [49] = source organism: human gammaherpesvirus 4
# [50] = source organism: Dengue virus 2 Jamaica/1409/1983
# [51] = source organism: Mycobacterium tuberculosis variant bovis
# [52] = source organism: Escherichia coli O139:H28 str. E24377A
# [53] = source organism: Salmonella enterica subsp. enterica serovar Typhi
sequence,measurement,setting,value
ITIPIGLYL,Kd,[1]; [45],≥ 20 µM
same,Kd,[2]; [45],≥ 20 µM
same,Kd,[3]; [45],≥ 20 µM
same,Kd,[4],≥ 20 µM
same,Kd,[5]; [45],≥ 20 µM
same,Kd,[6]; [45],≥ 20 µM
same,Kd,[7]; [45],≥ 20 µM
same,Kd,[8]; [46],2970 nM
same,Kd,[9],1.8 nM
same,Kd,[10]; [45],≥ 20 µM
same,Kd,[11]; [45],≥ 20 µM
same,Kd,[12],≥ 20 µM
same,Kd,[13]; [45],348 nM
same,Kd,[14]; [46],10.1 nM
same,Kd,[15]; source organism: Escherichia coli O157:H7 str. EDL933,94 nM
FLSFASLFL,IC50,[16]; [47],0.0489 µM
same,IC50,[17]; [47],0.276 µM
same,IC50,[18]; [47],8.79 µM
same,Kd,[19],≤ 1 nM
same,Kd,[2]; [47],≥ 20 µM
same,Kd,[15]; [47],5 nM
same,Kd,[20]; [47],≥ 20 µM
same,Kd,[21]; [47],≥ 20 µM
same,Kd,[22]; [47],≥ 20 µM
same,Kd,[23]; [47],≥ 20 µM
same,Kd,[24]; [47],≥ 20 µM
YTILNRKAI,IC50,[16]; [48],≥ 226 µM
same,IC50,[17]; [48],9.02 µM
same,IC50,[25]; [48],20.1 µM
NIKRTLAAM,IC50,[16]; [47],≥ 458 µM
same,IC50,[25]; [47],≥ 128 µM
YSQGAFTPL,Kd,[15]; [49],≤ 1 nM
same,Kd,[26]; [49],3080 nM
KTKLTDWDF,Kd,[27]; source organism: Dengue virus 4 Philippines/H241/1956,132 nM
RVGRVNPGT,IC50,[16]; source organism: Variola virus,11.4 µM
same,IC50,[25]; source organism: Variola virus,21.4 µM
GSSPILSITI,Kd,[27]; [50],114 nM
PMQQLTQPL,Kd,[1]; [51],≥ 20 µM
same,Kd,[2]; [51],≥ 20 µM
same,Kd,[3]; [51],≥ 20 µM
same,Kd,[28],≥ 20 µM
same,Kd,[5]; [51],≥ 20 µM
same,Kd,[6]; [51],≥ 20 µM
same,Kd,[7]; [51],≥ 20 µM
same,Kd,[8]; [51],≥ 20000 nM
same,Kd,[29],≥ 20 µM
same,Kd,[10]; [51],≥ 20 µM
same,Kd,[11]; [51],≥ 20 µM
same,Kd,[30],≥ 20 µM
same,Kd,[31],≥ 20 µM
same,Kd,[13]; [51],≥ 20000 nM
same,Kd,[14]; [51],≥ 20000 nM
PTAGILARW,Kd,[27]; source organism: Dengue virus 1 Brazil/97-11/1997,12.7 nM
ESSPNPTVEA,Kd,[27]; source organism: Dengue virus 2 Peru/IQT2913/1996,323 nM
LGKSYAQMW,Kd,[27]; [50],92.7 nM
SLDDYNHLV,Kd,[15]; source organism: Homo sapiens,≥ 20000 nM
same,Kd,[26]; source organism: Homo sapiens,278 nM
KAFQDVLYV,Kd,[32],≤ 1 nM
YVVWLMFSL,Kd,[15]; [52],2190 nM
same,Kd,[33]; [52],312 nM
same,Kd,[20]; [52],≥ 20 µM
same,Kd,[34]; [52],≥ 20 µM
AVFTEENQW,Kd,[27]; source organism: Dengue virus 3 Martinique/1243/1999,49.5 nM
GLMHNQNAL,IC50,[16]; [48],3.85 µM
same,IC50,[17]; [48],36.6 µM
same,IC50,[25]; [48],12.4 µM
same,IC50,[18]; [48],11.5 µM
HVTQHWPQL,Kd,[33]; [53],≥ 20000 nM
same,Kd,[35],≥ 20 µM
same,Kd,[36],≥ 20 µM
same,Kd,[37],7.05 µM
same,Kd,[38],≥ 20 µM
same,Kd,[39],≥ 20 µM
same,Kd,[40],≥ 20 µM
same,Kd,[34]; [53],≥ 20 µM
same,Kd,[21]; [53],≥ 20 µM
same,Kd,[22]; [53],≥ 20 µM
same,Kd,[41],≥ 20 µM
same,Kd,[23]; [53],≥ 20 µM
same,Kd,[42],≥ 20 µM
same,Kd,[24]; [53],≥ 20 µM
IPLASLTPK,IC50,[43],66.6 µM
same,IC50,[44],6.66 µM
same,IC50,[17]; source organism: Variola virus,22.1 µM
same,IC50,[25]; source organism: Variola virus,5.73 µM
